Measurements from paper PMC7241686.

Target: HA trimer from A/New Caledonia/20/1999 (H1N1), soluble trimerized HA ectodomain (Influenza A virus A/New Caledonia/20/1999 (H1N1))
Experiment: SEC

Question: Which stoichiometry N does the source give for “HA trimer from A/New Caledonia/20/1999 (H1N1), soluble trimerized HA ectodomain (domain or fragment)” here?
Answer: Its stoichiometry N is 3.
